Measured values published in publication PMC4229036.

Target: Donor-labeled human factor Xa (fluorescein-EGR-chloromethylketone at the active site) (human)
Assay: fluorescence polarisation

fluorescence anisotropy of active-site fluorescein (200 µM C6PS): 0.21 | fluorescence anisotropy of active-site fluorescein (400 µM C6PS): 0.22 | fluorescence anisotropy of active-site fluorescein (700 µM C6PS): 0.22 | fluorescence anisotropy of active-site fluorescein (on membranes): 0.22
Substance: Recombinant human factor Va (FVa2) with a N2181Q mutation (natural protein)
